Measured values: patent US20250074980A1 (BRIGHAM AND WOMEN S HOSPITAL, published 2025)

Columns and labels:
[1] = biological target: T1, CEACAM6 on transfected HeLa cells (human, UniProt P40199 35-320); assay: flow cytometry, HeLa-CEACAM6 transfectants, % positive cells
T1 construct: whole, on cells; also called HeLa-CEACAM6; HeLa C6
T1 sequence (looked up): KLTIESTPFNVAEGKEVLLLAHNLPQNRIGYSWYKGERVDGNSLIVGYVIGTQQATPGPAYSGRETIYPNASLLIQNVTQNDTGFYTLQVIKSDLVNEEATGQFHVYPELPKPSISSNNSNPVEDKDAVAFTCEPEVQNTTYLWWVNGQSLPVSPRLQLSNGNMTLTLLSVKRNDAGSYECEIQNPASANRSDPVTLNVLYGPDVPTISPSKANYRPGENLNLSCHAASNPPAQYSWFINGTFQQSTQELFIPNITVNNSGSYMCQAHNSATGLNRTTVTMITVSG

[2] = biological target: T2, CEACAM1 on transfected HeLa cells (human, UniProt P13688 35-526); assay: flow cytometry, transfected HeLa
T2 construct: also called HeLa-CEACAM1; HeLa C1
T2 sequence: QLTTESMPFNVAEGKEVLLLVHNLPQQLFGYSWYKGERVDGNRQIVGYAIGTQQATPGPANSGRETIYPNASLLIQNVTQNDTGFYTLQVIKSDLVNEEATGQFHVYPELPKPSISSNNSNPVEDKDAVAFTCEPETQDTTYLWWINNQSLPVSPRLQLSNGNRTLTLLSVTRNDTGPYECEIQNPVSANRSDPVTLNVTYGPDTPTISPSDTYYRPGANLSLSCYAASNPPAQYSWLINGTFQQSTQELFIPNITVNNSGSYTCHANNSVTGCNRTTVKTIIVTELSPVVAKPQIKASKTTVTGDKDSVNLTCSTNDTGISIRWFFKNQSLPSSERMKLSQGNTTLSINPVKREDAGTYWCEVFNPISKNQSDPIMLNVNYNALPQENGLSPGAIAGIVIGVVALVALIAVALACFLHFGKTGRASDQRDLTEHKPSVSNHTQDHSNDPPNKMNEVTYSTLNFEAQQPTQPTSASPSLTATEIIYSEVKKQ

[3] = biological target: T1, CEACAM6 on transfected HeLa cells; assay: flow cytometry, transfected HeLa
[4] = biological target: T3, CEACAM5 on transfected HeLa cells (human, UniProt P06731 35-685); assay: flow cytometry, transfected HeLa
T3 construct: whole, on cells; also called HeLa-CEACAM5; HeLa C5
T3 sequence (looked up): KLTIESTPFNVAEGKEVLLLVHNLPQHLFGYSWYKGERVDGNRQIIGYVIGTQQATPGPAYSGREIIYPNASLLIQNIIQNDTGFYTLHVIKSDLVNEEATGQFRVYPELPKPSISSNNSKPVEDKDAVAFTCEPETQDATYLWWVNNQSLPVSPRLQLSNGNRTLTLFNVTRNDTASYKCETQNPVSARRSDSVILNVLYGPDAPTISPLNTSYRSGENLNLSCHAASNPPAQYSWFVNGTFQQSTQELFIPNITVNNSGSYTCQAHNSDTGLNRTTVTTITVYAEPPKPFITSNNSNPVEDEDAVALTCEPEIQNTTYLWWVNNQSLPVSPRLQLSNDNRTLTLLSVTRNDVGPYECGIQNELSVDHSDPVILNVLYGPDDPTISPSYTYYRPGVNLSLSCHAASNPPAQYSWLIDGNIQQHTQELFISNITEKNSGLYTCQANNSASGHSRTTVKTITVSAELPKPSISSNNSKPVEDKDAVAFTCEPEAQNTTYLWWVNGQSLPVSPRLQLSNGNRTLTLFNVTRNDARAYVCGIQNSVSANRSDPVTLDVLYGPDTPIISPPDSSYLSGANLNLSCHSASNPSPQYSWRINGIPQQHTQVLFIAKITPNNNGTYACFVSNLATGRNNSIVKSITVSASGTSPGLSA

GST-CEACAM1 = biological target: T4, GST-CEACAM1 (human, UniProt P13688 35-141, limits assumed); assay: competition ELISA: binding of human CEACAM1-GST (37.5 µg/ml) to human TIM-3 IgV domain tagless protein (3 µg/ml), anti-GST detection, OD 450 nm
T4 construct: also called human CEACAM1-GST protein
T4 sequence: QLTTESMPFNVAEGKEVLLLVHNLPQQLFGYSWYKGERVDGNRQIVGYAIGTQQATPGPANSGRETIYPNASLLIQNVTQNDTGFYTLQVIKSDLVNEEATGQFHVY
Protocol: The ability of the CEACAM1 antibodies to reduce the binding of CEACAM1 to TIM-3 was examined. […] In addition, human IgG4 antibody was used as a control (0-1000 nM). Goat polyclonal anti-GST-HSP antibody from Abcam (1:2000) was used and assays were developed by addition of TMB solution (Life technologies). OD values were read at 450 nm on a plate reader. Data was plotted in a Graphpad and best-fit IC-50 values were determined.

B1: chimeric antibody VH0/Vκ0 (antibody, IgG4, V domains shown)
VH: EVQLVESGGDLVKPGGSLKLACAASGFIFSSHGMSWVRQTPDKRLEWVATISSGGTYTYYPDSVKGRFTISRDNDKNTLYLQMNSLKSEDTAMYYCARHDFDYDAAWFAYWGQGTLVTVSS
VL: QIVLTQSPALMSASPGVKVTMTCSANSSVSYMYWYRQKPRSSPKPWIYLTSNLASGVPARFSGSGSGTSYSLTISSMEAEDAATYYCQQWSSNPPTFGSGTKLEIK
notes: IgG4 (S241P), kappa; also called VH0/Vκ0 (control); Chimeric VH0/Vκ0
[1]
  binding result: no binding
[2]
  relative amount of cells bound: 78
[3]
  relative amount of cells bound: 0.3
[4]
  relative amount of cells bound: 8.81

B2: CP08H03/Vκ8 S29A (antibody, IgG4, V domains shown)
VH: EVQLLESGGGLVQPGGSLRLSCAASGFIFSSHGMSWVRQAPGKGLEWVATISSGGTYTYYPDSVKGRFTISRDNSKNTLYLQMNSLKAEDTAMYYCARHDFDYFPYWFAHWGQGTLVTVSS
VL: EIVLTQSPATLSLSPGERATLSCRANSAVSYMYWYQQKPGQAPRPWIYLTSNRATGVPARFSGSGSGTDYTLTISSLEPEDFAVYYCQQWSSNPPTFGQGTKLEIK
notes: IgG4 (S241P), kappa; also called CP08_H03/Parent VL; CP08_H03/Parental
GST-CEACAM1
  IC50: 0.0319 µM
